Test: label from the status in PepcDB records
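Note: failed if final PepcDB status was selected cloned or expressed and not failed if soluble or beyond.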

Sequence: MEPSAKHLQLQTLLSERHAYLMEGNREAMHQLLSSDFSFIDGQGRQFDAETYLDHYVDPDQIQWSNQISESMVVEVFETTALVQEIVEDHFSYGRSMYIGRFRSVSLYHWANEGWKWHFHQLTPLDPS
- protein production: not failed

Sequence: MAAAVSTVGAINRAPLSLNGSGSGAVSAPASTFLGKKVVTVSRFAQSNKKSNGSFKVLAVKEDKQTDGDRWRGLAYDTSDDQQDITRGKGMVDSVFQAPMGTGTHHAVLSSYEYVSQGLRQYNLDNMMDGFYIAPAFMDKLVVHITKNFLTLPNIKVPLILGIWGGKGQGKSFQCELVMAKMGINPIMMSAGELESGNAGEPAKLIRQRYREAADLIKKGKMCCLFINDLDAGAGRMGGTTQYTVNNQMVNATLMNIADNPTNVQLPGMYNKEENARVPIICTGNDFSTLYAPLIRDGRMEKFYWAPTREDRIGVCKGIFRTDKIKDEDIVTLVDQFPGQSIDFFGALRARVYDDEVRKFVESLGVEKIGKRLVNSREGPPVFEQPEMTYEKLMEYGNMLVMEQENVKRVQLAETYLSQAALGDANADAIGRGTFYGKGAQQVNLPVPEGCTDPVAENFDPTARSDDGTCVYNF
- protein production: failed

Sequence: MMIDPELRPAFLPAGKLRAAINLGNPILAGTDAAGQAVGVSVDLAREFARRLNAGIELRVFDTAGQSVDAVTREEADIGFFAIDPARGAGIAFTGPYVLIEGAYLVRDDSPLQANEDVDRAGKRVTVGKGSAYDLHLTRALQHAEIVRAASSQAVVDTFLARRLDVAAGVKQQLQADARRVGGVRLLPGRFMVIRQAMGLPKARGDAAAACLDAFVESMKGNGFVAQALARHGLEHHHHHH
- protein production: failed

Sequence: MEDKFANLSLHEKTGKSSIQLNEQTGSDNGSAVKRTSSTSSHYNNINADLHARVKAFQEQRALKRSASVGSNQSEQDKGSSQSPKHIQQIVNKPLPPLPVAGSSKVSQRMSSQVVQASSKSTLKNVLDNQETQNITDVNINIDTTKITATTIGVNTGLPATDITPSVSNTASATHKAQLLNPNRRAPRRPLSTQHPTRPNVAPHKAPAIINTPKQSLSARRAVKLPPGGMSLKMPTKTAQQPQQFAPSPSNKKHIETLSNSKVVEGKRSNPGSLINGVQSTSTSSSTEGPHDTVGTTPRTGNSNNSSNSGSSGGGGLFANFSKYVDIKSGSLNFAGKLSLSSKGIDFSNGSSSRITLDELEFLDELGHGNYGNVSKVLHKPTNVIMATKEVRLELDEAKFRQILMELEVLHKCNSPYIVDFYGAFFIEGAVYMCMEYMDGGSLDKIYDESSEIGGIDEPQLAFIANAVIHGLKELKEQHNIIHRDVKPTNILCSANQGTVKLCDFGVSGNLVASLAKTNIGCQSYMAPERIKSLNPDRATYTVQSDIWSLGLSILEMALGRYPYPPETYDNIFSQLSAIVDGPPPRLPSDKFSSDAQDFVSLCLQKIPERRPTYAALTEHPWLVKYRNQDVHMSEYITERLERRNKILRERGENGLSKNVPALHMGGL
- protein production: failed

Sequence: MKAKGNQKTKVNIVTLGCSKNLVDSENLLTQLRGNGIEAEHESKNDNSNVVVINTCGFIDNAKQESIDTILRYIDAKENGLIDKIYVSGCLSQRYKDDMEREMPQVDAFFGSNELPAILKKFRADYKHELVGERLLTTPSHYAYVKIAEGCDRPCSFCAIPVMRGKHVSTPMEDLVKQAKGMAAKGTKELILIAQDLTYYGLDIYKKRNLSDLLKNLSDVEGIDWIRLQYAYPSGFPLDVLDVMAERSNICKYIDMPLQHGSSDMLKLMRRGIDRPKTEDLIKTIRDKVPGIAFRTTMIIGHPGETEKDFDELCSFVEEQRFDRLGAFTYSHEEHTHSYSMEDTIPQEEKEERQATIMSIQEGISAELNEKKIGNTYKVLFDRKEGGYFIGRTEHDSPEVDNEVMVSAKDQYVRIGDFANVKINDAAEFDLFGEIVK
- protein production: failed

Sequence: YTFIGNSPVPKSYSLSEMRDAFIKFFEKRGHKFLKPYPVVPRWREDVLLVNASIYDFQPHVTSGIVRPPGNPIVMSQPSIRMNDVDLVGITGRHLTSFEMLCHDSFNTKDKTVYWKEETVHYCYDFLTEGLGIDGKLISFKEKPWSGGGNAGNALEVFVRGLEVATLVFMDMKEDPNGPYEIDGIRYSKMDMRIVDTGYGLERLTWLSQGTPTVYQAIYPDIIQHVMKNSSVSDIDEEFLSEVVKASVMKEP
- protein production: failed

Sequence: MISMPKEKVVIIIPTYNEEDNISNTIDLILKETYSLADYQVDILVFDSHSTDSTAHIVRELTYTSQRIHFAQEPQKTGLGSAYLQAMRIAIDELNADVVFEFDADGSHQPCYIAPMLELLKQHDVVVGSRYISGGRIPSNWAFHRKLLSVGGNWVARMLLTGKYKDLTSGLRAIRTNLLKKLLPSNFLSNNYAYKLELYWLLHKAKARIVEFPIQFIDREKGKSKLPKNSMIDTLRVLFTLRFRELRQYLTMCCVGSIGALIQFSLYNWLRSSNHSALVSSQVAISAAIISNFIFHHSITFKQKTDFRITKTTFSRFTQFIIYSTFMVYFQSLWVHIFVHSFGQGVLKENIIVASGLGIGSIINYLFYSNIIWSSKGTHSLNSNSSKETQI
- protein production: failed

Sequence: IQAGILANSFHVKLSDETQMVVKYQNQPFVNGTFGNWQILEAETINGINQILWRNPDIEEVGIWNTDANWNWISSETWSANSLKTLNAEVTFQIDINNDQLIG
- protein production: failed

Sequence: MNLFKKIIFGAAVMGLMAAGDASAAGKIVIDGSTTVGPIAKAFAAYFHKKTGIDVTVSESGSGNGAKSLINKTCDIADMSRPMEPKEIAAAKANGVNPVEHVVALDGLSMIVHPSNPVAKLTTAQIHDIYLGKITNWKQVGGPNAQIVFVQRESNSGTQECFEKLVMKDDKIAPAAETAASNGAVKSRVASTPNAIGFVGLGFVDKSVKPLIVNGVKPSIATVRNGSYVLHRPLFMYTNGQPKGDVAKFINLPKTPDGKRMISELGFVNK
- protein production: failed

Sequence: MRTISFFNNKGGVGKTTLSTNVAHYFALQGKRVLYVDCDPQCNATQLMLTEEQTESIYLDGLNDEVAERNSLAKTVYAIFVPLREGESQIAAEITPMRSERFGVDVLPGHPALSQIEDLMSDSWQSALGRQTGPFRRIHWAGQLAHAMERDDRYDVIFFDVGPSLGPFNRTVLLGCDAFVTPTATDLFSFHAFGNLARWFDAWVTQ
- protein production: failed

Sequence: MKSAVEQLSTYKSVHLNPRNIQTHFIGIPLIIWSAFLLFATIRIPLGDADNVNLGMILAIGIMLYYLRLHAKLALGLALFLAPVIYTTELVAHSENAFGLAITVFIVGWIFQLIGHRYEKAKPAFVDDLNQLLIGPFFLMAEVYFMLGLEKQLNAEITPIAIEKRRALEAHLKTK
- protein production: failed

Sequence: MIYWLYLAVFFLLSALDAKEIAMQRFDKQNHKIFEILADKVSAKDNVITASGNAILLNYDVYILADKVRYDTKTKEALLEGNIKVYRGEGLLVKTDYVKLSLNEKYEIIFPFYVQDSVSGIWVSADIASGKDQKYKVKNMSTSGCSIDNPIWHVNATSGSFNMQKSHLSMWNPKIYVGDIPVLYLPYIFMSTSNKRTTGFLYPEFGTSNLDGFIYLQPFYLAPKNSWDMTFTPQIRYKRGFGLNFEARYINSKNDRFLFNARYFRNYTQYVKRYDLRNQNIYGFEFLSSSRDTLQKYFHLKSNIDNGHYIDFLYMNDLDYVRFEKVNKRITDATHMSRANYYLQTENNYYGLNIKYFLNLNKINNNRTFQSVPNLQYHKYLNSLYFRNLLYSVDYQFRNTAREIGYGYVQNALNVPVGLQFSLFKKYLSLGLWNDLQLSNVALMQSKNSFVPTIPNESREFGNFVSSNFSMYVNTDLAREYNKLFHTIQLEAIFNIPYYTFKNGLFSQNMYALSAQALNSYTSPLLRDYDYQGRLYDSVWNPSSILPSNASNKTVDLTLTQYLYGLGGQELLYFKISQLINLDDKVSPFRMPLESKIGFSPLTGLNIFGNVFYSFYQNRLEEISVNANYQRKFLSFNLSYFLKNNFSSGINSIVENLRII
- protein production: failed

Sequence: MYKSLFTIIILLYSASSYAKSESPPASTITFIAQIDHVELNKTALSHDMKLVLADRFYFKTSNPCETNSISARPESMDITDKAYADKLKKLETPFLDDRYFFMTINQCDGNGTPMLTDIKVCTTELCGAEYTKKMSTVWLDETLKPTAKRLAIYFIQSPLPYDEEKKQWKVTGWYISSTDNQSSTKQIAFEGYTDTDNLSDSKFISSFKSWFESGKIKNIANYNPKGERDGKYESYYNSNGNVYESLSFSNGLINGEFITYYENGAIESKRHFNNDKIKDGECPHFYEDGKIKQQHSYLNSKLDGPAYEYYPDGKLMQENFYQQSVLIGNDTSYYQSGKISSIHNRNSRGQYDGANERYSEEGKLLSKSVYKDGKQISVQTWYENGQKEEEKHFDEQGQLNGLVKQWYKNGNLAKSQNYKHDILDGNSEEWYENGIPESLYPYKNGKTDGIAKSWNKYGKLTYSIEYKNGVENGAYRNWSKNTGKLTKETLYVNGIRQGVEKEFNDRTGKLLTSTQYVNNKRHGTEETYDQNGIKYITCYQNDQKLSSLDNPTQIKDNATTGDSSAQFALGKYEFICANIDEGIKWLTKSAEQKNTDAIYFLATAYKGNGIPANNEKYLAYLQQAATLGSSNAQAEIGYLYLIGKELPQNLPDAGVWFKKAAAQGNFAAHFYLGRMYQNGDGVERNMEKARFHLSNAAEGGIEPALKALNELEHQTK
- protein production: failed

Sequence: MMKIIAFVGMPASGKSEASRIAAEMGIPVIIMGDVIRKEVLKRGLEPNDSNTGMVATDLRKHEGMGAVARRCISQIRETGSELVVVDGVRGIAEVECFRKEFGKGFILISIYAPIEVRFSRVQKRGRSDDMNSIEGLRHRDERELSWGMGEAIDASNVEIENNFTLETFRKDVRDVLSNYLEADLEK
- protein production: not failed

Sequence: DPLDNLVAPTAAAAAAAAGKKKQPSAAAAAATKTTANKVANSNNKANAGSNIGGPNAKKPNQAEKENKPNNALNKTDGKKFTPSADNKQQQFNNNASSNYK
- protein production: failed

Sequence: MEEELQHSHCVNCVSRRCMTRPEPGISCDLIGCPLVCGAVFHSCKADEHRLLCPFERVPCLNSDFGCPFTMARNKVAEHLEMCPASV
- protein production: not failed

Sequence: MVGVRMTKKVLIVEDNELNMKLFHDLLEAQGYETLQTREGLSALSIARENKPDLILMDIQLPEISGLEVTKWLKEDDDLAHIPVVAVTAFAMKGDEERIREGGCEAYISKPISVVHFLETIKRLLERQPA
- protein production: not failed

Sequence: MQLNESMSTQDNSLAENYYQQAIEQWKSRDQKQALQFFKKAVRAKPSNAHYWYALAGTYHIQNKFRAARFCFEKSLNLNPNQDEIKIFLCEICYLLTDYKSVAYYAGQVDLSKIQNLEILYKVACSFKELGQLEKTGQVCSQILSLDDNFWQAKLLAAEILRIKGYSGEAKVLVLELIDQQPTVGKFWNELGINEVDLAHEDEALSAFSKAEQYVSGPEKLIIGSNYLFEFSSGLRTAKDILDAHLLWNKKYCKDQGGSFQSSKFNYLKSNDKKNIAYLSGDFKTHSVSYFIEGILENHSRDAFNIILLSNTQEDEKTKKFKELADIWIDLKLTNFETAAQIVKRLNIDILIELSGHTNGNKLNLLSSRLAPVQATYLGYFATTGLSTIDYWITDNVVHPAHTVELATETIFRLPRCYLAYTPPPQSPSIAESPVIKNGYITFGSFVASRKISDYSILLWSSILSEIPNSQLLIKNRSCVSPLYRSELIEKFSLCGISSQRINFNEAKLNLEDHLALYNKVDIALDTYPASGCTTTVEALWMGVPVLTRLGELMVSRNSASLLHALNLQNWIAETDEEYIDKGIKFTQSIEQLALLRQGMRERFMQSELYDSRGLTLHLEDFYLKALQEKLSANKEVRF
- protein production: failed

Sequence: MTKTLVIIAHPDMARSRVNAAWAEALRRAGDITLRDLSALYPDGMIDGAVERSLLEAHDRIILQFPLTWYSCPPILSAWQIAILTRGWAYGPGGRALRLKTLGVALSTGSNGRDYQPDGRYGRTLEDVTVPFELMARHTGMHYLPPFTLTGVRECDDAAVAASARAYLDHVRTAKPRILASGRDDDRARTVYPLEAGAR
- protein production: failed

Sequence: MGKRRFQKAKETSSVAEASSPTESQATRRRRGRPRKNLENPEDFKKEESEEDEDYEEYEDEEEEDEEAEVVINREKLKKKVRSSSGSMEKEQKMKHEELEEEEKPEMTVKVVVPPPSSRRSRRKSTPVKSW
- protein production: failed
